# Reference: patent US20170022503A1 (NATIONAL UNIVERSITY OF SINGAPORE, published 2017)
# B1: flag-tagged WARS2(L53F) mutant (human) (enzyme)
# chain: LHKGSAAAPALQKDSKKRVFSGIQPTGILHLGNYFGAIESWVRLQDEYDSVLYSIVDLHSITVPQDPAVLRQSILDMTAVLLACGINPEKSILFQQSQVSEHTQLSWILSCMVRLPRLQHLHQWKAKTTKQKHDGTVGLLTYPVLQAADILLYKSTHVPVGEDQVQHMELVQDLAQGFNKKYGEFFPVPESILTSMKKVKSLRDPSAKMSKSDPDKLATVRITDSPEEIVQKFRKAVTDFTSEVTYDPAGRAGVSNIVAVHAAVTGLSVEEVVRRSAGMNTARYKLAVADAVIEKFAPIKREIEKLKLDKDHLEKVLQIGSAKAKELAYTVCQEVKKLVGFL
# notes: also called mutant WARS2; not shown: C-terminal myc-DDK (flag) tag of the Origene construct
# B2: glyceraldehyde-3-phosphate dehydrogenase (GAPDH) (enzyme)
# chain: not shown
# notes: GAIT complex component; endogenous protein of HUVEC cells
# Assays:
# Assay in all cases: co-IP of flag-tagged protein from HUVEC cells, blot
# [1] = biological target: T1, glutamyl-prolyl tRNA synthetase (EPRS) (human, UniProt P07814 1-1512)
# T1 construct: GAIT complex component; endogenous protein of HUVEC cells
# [2] = biological target: Ribosomal Protein L 13a (RPL13a) (human, UniProt P40429 2-203)
# [3] = biological target: B1
# T1 sequence (P07814 whole entry): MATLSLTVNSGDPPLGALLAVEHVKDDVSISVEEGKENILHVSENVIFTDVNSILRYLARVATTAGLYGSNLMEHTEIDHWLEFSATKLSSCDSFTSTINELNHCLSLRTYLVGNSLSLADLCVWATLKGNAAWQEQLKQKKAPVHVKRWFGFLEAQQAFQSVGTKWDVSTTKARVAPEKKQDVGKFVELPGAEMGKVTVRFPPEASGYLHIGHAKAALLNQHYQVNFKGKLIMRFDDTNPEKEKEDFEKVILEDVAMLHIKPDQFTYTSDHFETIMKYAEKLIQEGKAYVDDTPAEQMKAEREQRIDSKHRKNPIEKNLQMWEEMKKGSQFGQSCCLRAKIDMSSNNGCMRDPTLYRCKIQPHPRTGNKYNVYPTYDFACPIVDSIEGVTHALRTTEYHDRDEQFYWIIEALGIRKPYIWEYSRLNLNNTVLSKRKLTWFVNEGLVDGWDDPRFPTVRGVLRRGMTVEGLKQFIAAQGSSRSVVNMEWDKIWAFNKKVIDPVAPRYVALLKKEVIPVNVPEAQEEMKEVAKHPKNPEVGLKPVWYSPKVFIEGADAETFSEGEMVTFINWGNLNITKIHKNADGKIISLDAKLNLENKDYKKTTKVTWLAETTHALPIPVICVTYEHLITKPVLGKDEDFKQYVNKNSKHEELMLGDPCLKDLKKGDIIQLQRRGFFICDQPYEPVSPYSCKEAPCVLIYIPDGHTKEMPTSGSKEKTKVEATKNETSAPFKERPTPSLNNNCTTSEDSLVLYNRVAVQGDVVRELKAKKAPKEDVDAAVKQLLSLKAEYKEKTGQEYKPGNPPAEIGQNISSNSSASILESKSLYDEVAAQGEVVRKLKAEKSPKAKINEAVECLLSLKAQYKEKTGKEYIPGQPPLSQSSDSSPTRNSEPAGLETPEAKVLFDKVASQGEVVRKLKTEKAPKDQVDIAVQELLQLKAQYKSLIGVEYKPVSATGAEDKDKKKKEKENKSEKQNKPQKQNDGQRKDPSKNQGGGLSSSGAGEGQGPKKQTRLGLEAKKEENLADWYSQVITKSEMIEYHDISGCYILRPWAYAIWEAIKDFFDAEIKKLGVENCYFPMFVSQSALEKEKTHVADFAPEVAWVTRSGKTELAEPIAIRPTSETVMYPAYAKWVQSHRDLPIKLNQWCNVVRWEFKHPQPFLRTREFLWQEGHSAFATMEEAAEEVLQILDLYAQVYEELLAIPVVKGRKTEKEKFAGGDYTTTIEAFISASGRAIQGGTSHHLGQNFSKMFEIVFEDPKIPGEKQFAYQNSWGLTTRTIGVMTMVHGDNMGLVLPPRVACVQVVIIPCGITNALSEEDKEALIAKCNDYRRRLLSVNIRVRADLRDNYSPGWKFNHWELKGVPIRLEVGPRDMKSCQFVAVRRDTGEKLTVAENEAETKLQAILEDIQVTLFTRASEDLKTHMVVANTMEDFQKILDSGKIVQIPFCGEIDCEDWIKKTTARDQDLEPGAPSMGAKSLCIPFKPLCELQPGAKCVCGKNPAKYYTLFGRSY
Binder,binding result [1],binding result [2],binding result [3]
B1,no binding,no binding,
B2,,,no binding
